# From US20240294570A1 (BRANDEIS UNIVERSITY, published 2024)
# Non-standard residues stand in square brackets, D forms with d. No end group written: not given here. *: point of attachment. pY = N[C@@H](Cc1ccc(OP(=O)(O)O)cc1)C(=O)O; NBD = O=[N+]([O-])c1ccc(*)c2nonc12; βAla = NCCC(=O)O
# Biological target: Alkaline phosphatase (Biomatik, Cat. No. A1130)
# Assay: cell-based or functional assay
binder,measurement,value
"{NBD-βAla}-[dL][dL][dL][dL][pY] [phosphopentapeptide 9, NBD-βA-llllpY]",half-life of 9 at 100 µM with 0.5 U/mL ALP,24.6 min
same,half-life of 9 at 200 µM with 0.5 U/mL ALP,21.6 min
same,half-life of 9 at 400 µM with 0.5 U/mL ALP,27 min
"{NBD}-[βAla]LL[pY]LL [phosphopentapeptide 7, NBD-βA-LLpYLL]",half-life of 7 at 100 µM with 0.5 U/mL ALP,127 min
same,half-life of 7 at 200 µM with 0.5 U/mL ALP,112 min
same,half-life of 7 at 400 µM with 0.5 U/mL ALP,126 min
"{NBD}-[βAla]LLLL[pY] [L-phosphopentapeptide 5, NBD-βA-LLLLpY]",half-life of 5 (400 µM) with 0.1 U/mL ALP,122 min
same,half-life of 5 at 100 µM with 0.5 U/mL ALP (LC-MS),27.3 min
same,half-life of 5 at 200 µM with 0.5 U/mL ALP (LC-MS),21.6 min
same,half-life of 5 at 400 µM with 0.5 U/mL ALP (LC-MS),30.6 min
